The labels stand for the following.
B1: Dipeptidyl peptidase 4 (Homo sapiens), P27487 (parent)
chain: MKTPWKVLLGLLGAAALVTIITVPVVLLNKGTDDATADSRKTYTLTDYLKNTYRLKLYSLRWISDHEYLYKQENNILVFNAEYGNSSVFLENSTFDEFGHSINDYSISPDGQFILLEYNYVKQWRHSYTASYDIYDLNKRQLITEERIPNNTQWVTWSPVGHKLAYVWNNDIYVKIEPNLPSYRITWTGKEDIIYNGITDWVYEEEVFSAYSALWWSPNGTFLAYAQFNDTEVPLIEYSFYSDESLQYPKTVRVPYPKAGAVNPTVKFFVVNTDSLSSVTNATSIQITAPASMLIGDHYLCDVTWATQERISLQWLRRIQNYSVMDICDYDESSGRWNCLVARQHIEMSTTGWVGRFRPSEPHFTLDGNSFYKIISNEEGYRHICYFQIDKKDCTFITKGTWEVIGIEALTSDYLYYISNEYKGMPGGRNLYKIQLSDYTKVTCLSCELNPERCQYYSVSFSKEAKYYQLRCSGPGLPLYTLHSSVNDKGLRVLEDNSALDKMLQNVQMPSKKLDFIILNETKFWYQMILPPHFDKSKKYPLLLDVYAGPCSQKADTVFRLNWATYLASTENIIVASFDGRGSGYQGDKIMHAINRRLGTFEVEDQIEAARQFSKMGFVDNKRIAIWGWSYGGYVTSMVLGSGSGVFKCGIAVAPVSRWEYYDSVYTERYMGLPTPEDNLDHYRNSTVMSRAENFKQVEYLLIHGTADDNVHFQQSAQISKALVDVGVDFQAMWYTDEDHGIASSTAHQHIYTHMSHFIKQCFSLP
partner: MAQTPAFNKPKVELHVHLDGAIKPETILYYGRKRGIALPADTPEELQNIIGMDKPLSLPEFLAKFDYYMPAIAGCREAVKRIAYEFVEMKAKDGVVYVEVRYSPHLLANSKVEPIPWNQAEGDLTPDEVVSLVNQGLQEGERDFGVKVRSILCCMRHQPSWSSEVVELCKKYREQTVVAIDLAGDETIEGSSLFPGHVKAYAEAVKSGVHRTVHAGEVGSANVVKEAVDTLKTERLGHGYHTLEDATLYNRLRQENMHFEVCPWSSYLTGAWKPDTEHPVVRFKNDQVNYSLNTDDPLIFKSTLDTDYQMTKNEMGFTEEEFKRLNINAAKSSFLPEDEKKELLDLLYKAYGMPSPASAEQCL

The variants in the first assay derive from B1. As to conditions: with ada_bovin ADA.
With Y238A, the “effect of a mutation on the interaction” value is on record as “decreasing interaction”.

The variants in another assay derive from B1. As to conditions: with ada_bovin ADA. The source holds these as a separate data set.
As to Y256A, the “effect of a mutation on the interaction” value was “decreasing interaction”.

Variants of B1 are the subject of the next assay. As to conditions: with ada_bovin ADA. This is another data set of the same source.
For Y248A, the “effect of a mutation on the interaction” value is “decreasing interaction”.

Values taken from IntAct's records for PubMed 22001206.
